# In patent US20130116412:
# Columns and labels:
# [1] = test system: T1, Ac-GFPG-NH2
# T1 sequence: GFPG
# [2] = test system: GST-(PPG)5, fusion of glutathione S-transferase and (Pro-Pro-Gly)5 with an intervening thrombin cleavage site
# Chain of GST-(PPG)5, fusion of glutathione S-transferase and (Pro-Pro-Gly)5 with an intervening thrombin cleavage site (chain, as listed by the source): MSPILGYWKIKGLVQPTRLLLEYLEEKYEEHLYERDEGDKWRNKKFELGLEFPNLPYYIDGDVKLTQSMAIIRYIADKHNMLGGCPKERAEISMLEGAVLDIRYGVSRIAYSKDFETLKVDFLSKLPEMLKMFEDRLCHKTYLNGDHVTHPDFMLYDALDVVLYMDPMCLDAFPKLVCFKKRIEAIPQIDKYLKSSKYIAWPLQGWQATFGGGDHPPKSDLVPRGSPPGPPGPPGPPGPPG
substance,measurement,setting,value
"human prolyl-4-hydroxylase (P4H), full-length tetramer produced from plasmid pBK1.PDI1.P4H7","in vitro hydroxylation of proline, MALDI-TOF / LC-MS",[1],The positive control showed that the proline residue in Ac-GFPG-NH2 was hydroxylated.
same,"in vitro hydroxylation of proline residues, MALDI-TOF of the cleaved peptide",[2],up to 3 hydroxyproline residues were produced in the (PPG)5 peptide after incubation with P4H
